Measurements taken from paper PMC7705965 (Journal of Medicinal Chemistry, 2020).
Primed or numbered codes have the meaning given here. Where no end group is shown, it is not given here. [ ]: non-standard residue; d: D form. TAMRA = 5(6)-carboxytetramethylrhodamine; PEG6′ = [PEG]6, polyethylene glycol

Assays:
[1] = target: T1, α-cobratoxin (Naja kaouthia, UniProt P01391 1-71); assay: fluorescence polarisation; conditions: both partners purified
[2] = target: T1, α-cobratoxin; assay: fluorescence polarisation; conditions: both partners purified; remark: listed apart in the source

T1 sequence (P01391 whole entry): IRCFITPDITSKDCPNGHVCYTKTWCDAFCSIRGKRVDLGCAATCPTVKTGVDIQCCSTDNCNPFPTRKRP

Row | Binder | Kd [1] [µM] | IC50 [2] [µM] | Ki [1] [µM]
1 | {TAMRA}-HAKTYMWDGWYMPTSH-NH2 [peptide 9 (TAMRA-HAKTYMWDGWYMPTSH-NH2)] | 52 | – | –
2 | Ac-HAKTYMWDGWYMPTSH-NH2 [peptide 1 (Ac-HAKTYMWDGWYMPTSH-NH2)] | – | 29 | 2
3 | [PEG6′]YMWDGWYM-NH2 [peptide 12 ([PEG]6-YMWDGWYM-NH2)] | – | – | 26
